Test results: CN116178545A (GUANGDONG FEIPENG PHARMACEUTICAL CO LTD, dated 2023)

T1: 重组人PD-L2蛋白 (human, UniProt Q9BQ51 20-219)
T1 construct: The words 携带hFc标签的 stand before the first protein of the list; also called Acrobiosystem Cat.PD2-H5251
T1 sequence (looked up): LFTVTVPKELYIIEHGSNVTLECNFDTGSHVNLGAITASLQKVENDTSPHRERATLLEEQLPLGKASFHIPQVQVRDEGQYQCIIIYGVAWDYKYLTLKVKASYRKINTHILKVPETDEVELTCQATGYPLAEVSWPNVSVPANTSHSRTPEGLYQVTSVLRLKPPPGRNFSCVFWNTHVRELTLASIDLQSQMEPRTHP

T2: 重组人ICOSLG蛋白 (human, UniProt O75144 19-258)
T2 construct: The words 携带hFc标签的 stand before the first protein of the list; also called Acrobiosystem Cat.B72-H5254
T2 sequence (looked up): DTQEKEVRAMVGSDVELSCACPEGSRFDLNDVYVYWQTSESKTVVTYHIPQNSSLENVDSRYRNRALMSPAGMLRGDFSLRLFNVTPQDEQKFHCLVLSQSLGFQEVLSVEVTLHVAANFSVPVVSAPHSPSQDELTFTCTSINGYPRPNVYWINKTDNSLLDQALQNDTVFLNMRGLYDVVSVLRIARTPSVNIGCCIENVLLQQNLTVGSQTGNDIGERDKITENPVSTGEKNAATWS

T3: 重组人CD86蛋白 (human, UniProt P42081 26-247)
T3 construct: The words 携带hFc标签的 stand before the first protein of the list; also called Acrobiosystem Cat.CD6-H5257
T3 sequence (looked up): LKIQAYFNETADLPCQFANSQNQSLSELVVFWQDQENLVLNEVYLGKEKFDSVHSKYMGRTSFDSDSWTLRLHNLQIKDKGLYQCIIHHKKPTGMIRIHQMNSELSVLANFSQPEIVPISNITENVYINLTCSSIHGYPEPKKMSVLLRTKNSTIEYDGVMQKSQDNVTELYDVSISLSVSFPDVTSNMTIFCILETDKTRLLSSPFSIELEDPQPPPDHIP

T4: 重组人ICOS蛋白 (human, UniProt Q9Y6W8 21-140)
T4 construct: The words 携带hFc标签的 stand before the first protein of the list; also called Acrobiosystem Cat.ICS-H5250
T4 sequence (looked up): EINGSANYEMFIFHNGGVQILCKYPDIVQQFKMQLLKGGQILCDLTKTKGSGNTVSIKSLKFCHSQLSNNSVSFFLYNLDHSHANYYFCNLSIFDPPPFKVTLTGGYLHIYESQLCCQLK

T5: 重组人CD276蛋白 (human, UniProt Q5ZPR3-2 29-245)
T5 construct: The words 携带hFc标签的 stand before the first protein of the list; also called B7-H3; Acrobiosystem Cat.B73-H5253
T5 sequence (looked up): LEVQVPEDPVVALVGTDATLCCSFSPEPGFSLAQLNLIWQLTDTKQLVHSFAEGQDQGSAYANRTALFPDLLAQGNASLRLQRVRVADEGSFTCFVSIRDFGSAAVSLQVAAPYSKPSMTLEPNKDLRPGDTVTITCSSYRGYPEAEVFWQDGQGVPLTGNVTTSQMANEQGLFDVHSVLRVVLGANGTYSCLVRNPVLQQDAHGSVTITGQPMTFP


What was measured:
人PD-L1 (on cells) = biological target: T6, 人PD-L1 (on cells) (human, UniProt Q9NZQ7 19-290); experiment: flow cytometry on IFNγ-stimulated A375 cells
T6 construct: whole, on cells; One molecule for human PD-L1 on CHO-hPD-L1, on IFNγ-stimulated A375 and on CHO-hPD-L1-OKT3 cells; the cell is named under assay; also called CHO-hPD-L1稳定细胞株; 稳定表达人PD-L1的CHO
T6 sequence (Q9NZQ7 19-290): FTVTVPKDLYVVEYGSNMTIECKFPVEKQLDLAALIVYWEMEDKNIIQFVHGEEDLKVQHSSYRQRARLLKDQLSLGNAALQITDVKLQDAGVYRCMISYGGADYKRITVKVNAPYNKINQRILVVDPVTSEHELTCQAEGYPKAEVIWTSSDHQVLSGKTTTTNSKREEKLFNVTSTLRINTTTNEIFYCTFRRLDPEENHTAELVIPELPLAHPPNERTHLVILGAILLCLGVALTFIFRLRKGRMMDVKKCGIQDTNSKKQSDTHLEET

重组人PD-L2蛋白 = biological target: T1, 重组人PD-L2蛋白; experiment: ELISA, protein coated at 1μg/ml
重组人ICOSLG蛋白 = biological target: T2, 重组人ICOSLG蛋白; experiment: ELISA, protein coated at 1μg/ml
重组人CD86蛋白 = biological target: T3, 重组人CD86蛋白; experiment: ELISA, protein coated at 1μg/ml
重组人ICOS蛋白 = biological target: T4, 重组人ICOS蛋白; experiment: ELISA, protein coated at 1μg/ml
重组人CD28蛋白 = biological target: T7, 重组人CD28蛋白 (human, UniProt P10747 19-152); experiment: ELISA, protein coated at 1μg/ml
T7 construct: The words 携带hFc标签的 stand before the first protein of the list; also called Acrobiosystem Cat.CD8-H525a

重组人CD276蛋白 = biological target: T5, 重组人CD276蛋白; experiment: ELISA, protein coated at 1μg/ml
重组人CTLA-4蛋白 = biological target: T8, 重组人CTLA-4蛋白 (human, UniProt P16410 37-162); experiment: ELISA, protein coated at 1μg/ml
T8 construct: The words 携带hFc标签的 stand before the first protein of the list; also called Acrobiosystem Cat.CT4-H5255
T8 sequence (P16410 37-162): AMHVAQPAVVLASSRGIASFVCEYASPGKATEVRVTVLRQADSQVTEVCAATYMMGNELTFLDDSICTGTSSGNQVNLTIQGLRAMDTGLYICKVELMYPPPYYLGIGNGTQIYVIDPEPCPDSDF

重组人PD-1蛋白(自产) = biological target: T9, 重组人PD-1蛋白(自产) (human, UniProt Q15116 25-167); experiment: ELISA, protein coated at 1μg/ml
T9 construct: The words 携带hFc标签的 stand before the first protein of the list
T9 sequence (Q15116 25-167): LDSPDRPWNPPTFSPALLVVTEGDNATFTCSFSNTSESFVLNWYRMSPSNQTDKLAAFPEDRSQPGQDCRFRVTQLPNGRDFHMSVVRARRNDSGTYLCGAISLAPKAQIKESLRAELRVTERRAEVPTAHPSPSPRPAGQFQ

小鼠PD-L1 (on CHO cells) = biological target: T10, 小鼠PD-L1 (on CHO cells) (mouse, UniProt Q9EP73 19-290); experiment: flow cytometry on CHO-mPD-L1 cells
T10 construct: whole, on cells; also called CHO-mPD-L1稳定细胞株; 稳定表达全长小鼠PD-L1的CHO
T10 sequence (Q9EP73 19-290): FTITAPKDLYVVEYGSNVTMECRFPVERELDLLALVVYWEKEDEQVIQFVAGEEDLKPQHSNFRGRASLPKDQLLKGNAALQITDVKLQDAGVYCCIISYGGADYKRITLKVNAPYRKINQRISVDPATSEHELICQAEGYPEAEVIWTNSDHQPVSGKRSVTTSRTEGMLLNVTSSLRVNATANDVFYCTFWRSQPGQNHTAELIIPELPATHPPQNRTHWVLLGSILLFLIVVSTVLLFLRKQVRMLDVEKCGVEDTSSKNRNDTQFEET

Row | EC50 (人PD-L1 (on cells)) [nM] | binding result (重组人PD-L2蛋白) | binding result (重组人ICOSLG蛋白) | binding result (重组人CD86蛋白) | binding result (重组人ICOS蛋白) | binding result (重组人CD28蛋白) | binding result (重组人CD276蛋白) | binding result (重组人CTLA-4蛋白) | binding result (重组人PD-1蛋白(自产)) | binding result (小鼠PD-L1 (on CHO cells)) | Binder
1 | ~0.2 | no binding (tested: 10μg/ml) | no binding (tested: 10μg/ml) | no binding (tested: 10μg/ml) | no binding (tested: 10μg/ml) | no binding (tested: 10μg/ml) | no binding (tested: 10μg/ml) | no binding (tested: 10μg/ml) | no binding (tested: 10μg/ml) | no binding (tested: 20μg/ml) | 176L1H2 (antibody, V domains shown, Whole humanized mAb expressed in 293 cells; detected with anti-human IgG; also called 抗人PD-L1人源化抗体176L1H2) VH: QVQLQESGPGLVKPSETLSLTCAVYGDSITSGYWNWIRKPPGKKLEYIGYISYTGSTYQNPSLKSRITMSRDTSKNQYYLKLSSVTAADTAVYYCARSRAWIRTYFDYWGQGTLVTVSS VL: EIVLTQSPDFQSVTPKEKVTITCSVSSSISSSNLHWYQQKPDQSPKLWIYGTSNLASGVPSRFSGSGSGTDYTLTINSLEAEDAATYYCQQWSSYPLTFGQGTKLEIKR
2 | ~0.2 | no binding (tested: 10μg/ml) | no binding (tested: 10μg/ml) | no binding (tested: 10μg/ml) | no binding (tested: 10μg/ml) | no binding (tested: 10μg/ml) | no binding (tested: 10μg/ml) | no binding (tested: 10μg/ml) | no binding (tested: 10μg/ml) | no binding (tested: 20μg/ml) | 176L2H2 (antibody, V domains shown, Whole humanized mAb expressed in 293 cells; detected with anti-human IgG; also called 抗人PD-L1人源化抗体176L2H2) VH: QVQLQESGPGLVKPSETLSLTCAVYGDSITSGYWNWIRKPPGKKLEYIGYISYTGSTYQNPSLKSRITMSRDTSKNQYYLKLSSVTAADTAVYYCARSRAWIRTYFDYWGQGTLVTVSS VL: EIVLTQSPDFQSVTPKEKVTITCSVSSSISSSNLHWYQQKPDQSPKPWIYGTSNLASGVPSRFSGSGSGTDYTLTINSLEAEDAATYYCQQWSSYPLTFGQGTKLEIKR
3 | ~0.2 | no binding (tested: 10μg/ml) | no binding (tested: 10μg/ml) | no binding (tested: 10μg/ml) | no binding (tested: 10μg/ml) | no binding (tested: 10μg/ml) | no binding (tested: 10μg/ml) | no binding (tested: 10μg/ml) | no binding (tested: 10μg/ml) | no binding (tested: 20μg/ml) | 176L2H3 (antibody, V domains shown, Whole humanized mAb expressed in 293 cells; detected with anti-human IgG; also called 抗人PD-L1人源化抗体176L2H3) VH: QVQLQESGPGLVKPSETLSLTCAVYGDSITSGYWNWIRKPPGKKLEYIGYISYTGSTYQNPSLKSRITFSRDTSKNQYYLKLSSVTAADTAVYYCARSRAWIRTYFDYWGQGTLVTVSS VL: EIVLTQSPDFQSVTPKEKVTITCSVSSSISSSNLHWYQQKPDQSPKPWIYGTSNLASGVPSRFSGSGSGTDYTLTINSLEAEDAATYYCQQWSSYPLTFGQGTKLEIKR
4 | ~0.2 | no binding (tested: 10μg/ml) | no binding (tested: 10μg/ml) | no binding (tested: 10μg/ml) | no binding (tested: 10μg/ml) | no binding (tested: 10μg/ml) | no binding (tested: 10μg/ml) | no binding (tested: 10μg/ml) | no binding (tested: 10μg/ml) | no binding (tested: 20μg/ml) | 176L1H3 (antibody, V domains shown, Whole humanized mAb expressed in 293 cells; detected with anti-human IgG; also called 抗人PD-L1人源化抗体176L1H3) VH: QVQLQESGPGLVKPSETLSLTCAVYGDSITSGYWNWIRKPPGKKLEYIGYISYTGSTYQNPSLKSRITFSRDTSKNQYYLKLSSVTAADTAVYYCARSRAWIRTYFDYWGQGTLVTVSS VL: EIVLTQSPDFQSVTPKEKVTITCSVSSSISSSNLHWYQQKPDQSPKLWIYGTSNLASGVPSRFSGSGSGTDYTLTINSLEAEDAATYYCQQWSSYPLTFGQGTKLEIKR
5 | ~0.2 | no binding (tested: 10μg/ml) | no binding (tested: 10μg/ml) | no binding (tested: 10μg/ml) | no binding (tested: 10μg/ml) | no binding (tested: 10μg/ml) | no binding (tested: 10μg/ml) | no binding (tested: 10μg/ml) | no binding (tested: 10μg/ml) | no binding (tested: 20μg/ml) | 176L2H1 (antibody, V domains shown, Whole humanized mAb expressed in 293 cells; detected with anti-human IgG; also called 抗人PD-L1人源化抗体176L2H1) VH: QVQLQESGPGLVKPSETLSLTCAVYGDSITSGYWNWIRKPPGKGLEYIGYISYTGSTYQNPSLKSRITMSRDTSKNQYYLKLSSVTAADTAVYYCARSRAWIRTYFDYWGQGTLVTVSS VL: EIVLTQSPDFQSVTPKEKVTITCSVSSSISSSNLHWYQQKPDQSPKPWIYGTSNLASGVPSRFSGSGSGTDYTLTINSLEAEDAATYYCQQWSSYPLTFGQGTKLEIKR
6 | ~0.2 | no binding (tested: 10μg/ml) | no binding (tested: 10μg/ml) | no binding (tested: 10μg/ml) | no binding (tested: 10μg/ml) | no binding (tested: 10μg/ml) | no binding (tested: 10μg/ml) | no binding (tested: 10μg/ml) | no binding (tested: 10μg/ml) | no binding (tested: 20μg/ml) | 176L3H2 (antibody, V domains shown, Whole humanized mAb expressed in 293 cells; detected with anti-human IgG; also called 抗人PD-L1人源化抗体176L3H2) VH: QVQLQESGPGLVKPSETLSLTCAVYGDSITSGYWNWIRKPPGKKLEYIGYISYTGSTYQNPSLKSRITMSRDTSKNQYYLKLSSVTAADTAVYYCARSRAWIRTYFDYWGQGTLVTVSS VL: EIVLTQSPDFQSVTPKEKVTITCSVSSSISSSNLHWYQQKPDQSPKPWIYGTSNLASGVPSRFSGSGSGTDYSLTINSLEAEDAATYYCQQWSSYPLTFGQGTKLEIKR
7 | ~0.2 | no binding (tested: 10μg/ml) | no binding (tested: 10μg/ml) | no binding (tested: 10μg/ml) | no binding (tested: 10μg/ml) | no binding (tested: 10μg/ml) | no binding (tested: 10μg/ml) | no binding (tested: 10μg/ml) | no binding (tested: 10μg/ml) | no binding (tested: 20μg/ml) | 176L1H1 (antibody, V domains shown, Whole humanized mAb expressed in 293 cells, protein A purified; hIgG1 isotype control; detected with anti-human IgG; also called 抗人PD-L1人源化抗体176L1H1) VH: QVQLQESGPGLVKPSETLSLTCAVYGDSITSGYWNWIRKPPGKGLEYIGYISYTGSTYQNPSLKSRITMSRDTSKNQYYLKLSSVTAADTAVYYCARSRAWIRTYFDYWGQGTLVTVSS VL: EIVLTQSPDFQSVTPKEKVTITCSVSSSISSSNLHWYQQKPDQSPKLWIYGTSNLASGVPSRFSGSGSGTDYTLTINSLEAEDAATYYCQQWSSYPLTFGQGTKLEIKR
